From paper PMC7477763

Target: B-Ub-MERS27-VME (UniProt P0CG48)
Chain of UniProt P0CG48 (P0CG48 whole entry, looked up): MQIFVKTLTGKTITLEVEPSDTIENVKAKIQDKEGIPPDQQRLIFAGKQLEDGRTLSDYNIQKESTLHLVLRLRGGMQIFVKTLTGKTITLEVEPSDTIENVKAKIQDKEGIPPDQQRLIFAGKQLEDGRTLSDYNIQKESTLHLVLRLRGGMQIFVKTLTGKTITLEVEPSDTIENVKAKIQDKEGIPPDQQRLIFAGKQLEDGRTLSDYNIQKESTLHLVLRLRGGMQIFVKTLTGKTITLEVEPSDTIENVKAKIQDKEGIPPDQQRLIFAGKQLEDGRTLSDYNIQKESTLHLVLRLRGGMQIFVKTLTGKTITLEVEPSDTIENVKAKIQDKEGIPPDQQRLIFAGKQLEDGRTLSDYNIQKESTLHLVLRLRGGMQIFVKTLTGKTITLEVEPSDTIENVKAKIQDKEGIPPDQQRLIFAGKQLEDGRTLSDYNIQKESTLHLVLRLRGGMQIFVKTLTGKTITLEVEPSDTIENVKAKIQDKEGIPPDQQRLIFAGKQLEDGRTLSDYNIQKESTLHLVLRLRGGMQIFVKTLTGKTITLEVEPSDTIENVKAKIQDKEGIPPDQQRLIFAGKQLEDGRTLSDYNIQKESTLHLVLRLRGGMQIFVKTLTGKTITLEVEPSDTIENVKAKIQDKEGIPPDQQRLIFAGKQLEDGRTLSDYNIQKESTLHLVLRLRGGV

In the case of “Middle East respiratory syndrome papain-like protease (MERS PLpro), recombinant”, the kobs/I is reported as 22 144 ± 1431 M^–1 s^–1.
